Assay results from patent US20210188980A1 (SHANGHAI EPIMAB BIOTHERAPEUTICS, published 2021).
Changes are numbered by the printed parent chain.

T1: recombinant human LAG-3-his protein (Novoprotein) (human, UniProt P18627 23-450)
T1 construct: Bought; also called huLAG-3; not shown: His tag
T1 sequence (looked up): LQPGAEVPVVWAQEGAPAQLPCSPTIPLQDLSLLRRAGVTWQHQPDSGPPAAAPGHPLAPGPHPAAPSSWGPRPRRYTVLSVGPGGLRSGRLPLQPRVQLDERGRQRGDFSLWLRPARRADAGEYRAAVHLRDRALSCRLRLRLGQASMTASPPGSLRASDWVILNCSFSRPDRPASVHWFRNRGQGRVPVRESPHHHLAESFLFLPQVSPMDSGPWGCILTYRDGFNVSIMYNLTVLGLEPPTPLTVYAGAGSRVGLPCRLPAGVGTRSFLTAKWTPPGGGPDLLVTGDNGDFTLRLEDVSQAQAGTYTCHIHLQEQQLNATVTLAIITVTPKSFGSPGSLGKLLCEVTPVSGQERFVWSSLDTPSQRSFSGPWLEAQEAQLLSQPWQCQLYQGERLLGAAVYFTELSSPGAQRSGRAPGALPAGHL

B1: mAb713c (antibody, V domains shown)
VH: EVKLVESGGGLVKPGGSLELSCAASGFTSSDYGMHWVRQAPEKGLEWVAYISSGSYTIYYADTVKGRFTISRDNAKNTLFLQMTSLRSEDTAMYYCAKRGGSSHVNVMDYWGQGTSVTVSS
VL: DIQMTQSSSYLSVSLGGRVTITCKASDHINNWLAWYQQKPGNAPRLLISGATSLETGVPSRFSGSGSGKDYTLSITSLQTEDVATYYCQQYWSPPYTFGGGTKLEIK
notes: also called mAb73c
B2: HumAb719-11 (antibody, human IgG1, kappa, L234A L235A, V domains shown)
VH: EVQLLESGGGLVQPGGSLRLSCAASGFSFSSHLMSWVRQAPGKGLEWVAAISGGGADTYYPDSVKGRFTISRDNSKNTLYLQMNSLRAEDTAVYYCTRQILAFDSWGQGTTVTVSS
VL: DIQMNQSPSSLSASVGDRVTITCHASQNIYVWLNWYQQKPGKAPKLLIYKASNLHTGVPSRFSGSGSGTDFTFTISSLQPEDIATYYCQQGQSYPWTFGGGTKVEIKR
notes: humanized mAb719
B3: HumAb719-21 (antibody, human IgG1, kappa, L234A L235A, V domains shown)
VH: B2 VH with G44R, D62A, S105A
VL: B2 VL with A43I
notes: humanized mAb719; also called HuniAb719-21
B4: HumAb719-8 (antibody, human IgG1, kappa, L234A L235A, V domains shown)
VH: B2 VH with S28T, A49S, T97A, R98K
VL: B2 VL
notes: humanized mAb719
B5: HumAb719-12 (antibody, human IgG1, kappa, L234A L235A, V domains shown)
VH: B2 VH with G44R
VL: B2 VL
notes: humanized mAb719
B6: mAb719c (antibody, V domains shown)
VH: EVKLVESGGGLVKPGGSLKLSCTASGFSFSSHLMSWVRQTPEKRLEWVAAISGGGADTYYPDSVKGRFTISRDNAKNTLYLQMRSLRSEDTALYYCTRQILAFDSWGQGTTLTVSS
VL: DIQMNQSPSSLSVSLGDTITITCHASQNIYVWLNWYQQKPGNIPKLLIYKASNLHTGVPSRFSGGGSGTGFTLTISSLQPEDIATYYCQQGQSYPWTFGGGTKLEIK
B7: HumAb747-44 (antibody, human IgG1, V domains shown)
VH: EVQLVQSGAEVKKPGATVKLSCKASDFNIKDDYMHWVQQAPGKGLEWIGWIVPENGNTEYASKFQGRVTITADTSTDTAYLELSSLRSEDTAVYYCTVYGDYWGQGTTVTVSS
VL: DIQMTQSPSSLSASVGDRVTITCRASQEISGYLSWLQQKPGKAIKSLIYAASTLDSGVPSRFSGSRSGTDFTLTISSLQPEDFATYYCLQYASYPLTFGQGTKLEIK
notes: humanized mAb747; human IgG1/kappa constant domains
B8: HumAb747-46 (antibody, human IgG1, V domains shown)
VH: B7 VH with K23T, Q38K, V68A, D77N
VL: B7 VL
notes: as for B7
B9: HumAb747-45 (antibody, human IgG1, V domains shown)
VH: B7 VH with K23T
VL: B7 VL
notes: as for B7
B10: HumAb747-47 (antibody, human IgG1, V domains shown)
VH: B7 VH with L20I, A24V
VL: B7 VL with S46R
notes: as for B7
B11: HumAb747-48 (antibody, human IgG1, V domains shown)
VH: B7 VH
VL: B7 VL with S46R
notes: as for B7
B12: HumAb747-43 (antibody, human IgG1, V domains shown)
VH: B7 VH with L20I, A24V
VL: B7 VL
notes: as for B7
B13: HumAb747-54 (antibody, human IgG1, V domains shown)
VH: B7 VH with K23T, Q38K, V68A, D77N
VL: B7 VL with K42G, S46R, T69S, F71Y, T85D, I106L
notes: as for B7
B14: HumAb747-50 (antibody, human IgG1, V domains shown)
VH: B7 VH with K23T, Q38K, V68A, D77N
VL: B7 VL with S46R
notes: as for B7
B15: HumAb747-51 (antibody, human IgG1, V domains shown)
VH: B7 VH with L20I, A24V
VL: B7 VL with K42G, S46R, T69S, F71Y, T85D, I106L
notes: as for B7
B16: HumAb747-53 (antibody, human IgG1, V domains shown)
VH: B7 VH with K23T
VL: B7 VL with K42G, S46R, T69S, F71Y, T85D, I106L
notes: as for B7
B17: HumAb747-49 (antibody, human IgG1, V domains shown)
VH: B7 VH with K23T
VL: B7 VL with S46R
notes: as for B7
B18: HumAb747-52 (antibody, human IgG1, V domains shown)
VH: B7 VH
VL: B7 VL with K42G, S46R, T69S, F71Y, T85D, I106L
notes: as for B7
B19: B3-21-IgG (antibody, V domains shown)
VH: B7 VH with T17S, L20V, Q38R, K43Q, T76I, D77N, L81M, S85R, E89D, Y102V
VL: DIQMTQSPSSLSASVGDRVTINCRAMQEISGYLSWLQQKPEGTIKRLIYAASTLDSGVPSRFSGSRSGSDYTLTISSLQPEDFATYYCLQYAYYPLTFGGGTKVEIK
notes: human IgG1/kappa constant domains
B20: B3-43-IgG (antibody, V domains shown)
VH: B7 VH with T17S, L20V, D26G, Q38C, K43Q, T76I, D77N, L81M, S85R, E89D
VL: B19 VL with M26S, T53H, Y93S
notes: as for B19
B21: B2-53-IgG (antibody, V domains shown)
VH: EVQLVQSGAEVKKPGASVKVSCKASGFNIKDDYMHWVRQAPGQGLEWIGWIVPENGNTVYASKFQGRVTITADTSINTAYMELSRLRSDDTAVYYCTVYGDYWGQGTTVTVSS
VL: B19 VL with M26S, T53A, Y93S
notes: human IgG1/kappa constant domains; also called B82-53
B22: B3-48-IgG (antibody, V domains shown)
VH: B21 VH with G26D, N28S, N57K, V59E
VL: B19 VL with M26S, S52M, Y93S
notes: as for B19
B23: B3-46-IgG (antibody, V domains shown)
VH: B21 VH with N57L, V59E
VL: B19 VL with M26S, A51T, Y93S
notes: as for B19

Target: T2, human PD-1-His protein (human, UniProt Q15116 25-167, limits assumed)
T2 construct: also called huPD-1; not shown: His tag
T2 sequence (Q15116 25-167 limits assumed): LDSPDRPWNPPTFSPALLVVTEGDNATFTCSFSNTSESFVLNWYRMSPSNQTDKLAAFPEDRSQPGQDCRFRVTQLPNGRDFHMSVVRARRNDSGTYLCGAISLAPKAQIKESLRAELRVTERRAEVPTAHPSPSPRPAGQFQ
Assay: SPR Biacore

Row | Kd | koff | kon | Binder
1 | 1.3 nM | 0.000284 s⁻¹ | 218000 M⁻¹ s⁻¹ | B1

Target: T3, human PD-1 expressed on cells (human, UniProt Q15116 25-288)
T3 construct: whole, on cells; also called CHO-K1/huPD-1; CHO-K1-hPD-1 cells
T3 sequence (Q15116 25-288): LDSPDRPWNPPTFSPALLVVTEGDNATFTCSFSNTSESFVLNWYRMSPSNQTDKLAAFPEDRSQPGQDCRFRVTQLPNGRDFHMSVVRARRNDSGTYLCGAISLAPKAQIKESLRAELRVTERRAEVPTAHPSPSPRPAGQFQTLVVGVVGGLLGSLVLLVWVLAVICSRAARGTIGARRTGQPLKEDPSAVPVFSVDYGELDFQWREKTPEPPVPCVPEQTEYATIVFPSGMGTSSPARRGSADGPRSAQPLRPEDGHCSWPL
Assay: cell RBA FACS; competitor PD-L1/Fc

Row | IC50 | Binder
2 | 0.91 nM | B1

Target: T3, human PD-1 expressed on cells
Assay: cell RBA FACS; competitor PD-L2/Fc

Row | IC50 | Binder
3 | 2.2 nM | B1

Target: T4, human PD-1 ECD/Fc fusion protein (human)
T4 construct: also called huPD-1/Fc; HuPD-1 ECD/Fc
T4 sequence (chain, as listed by the source limits assumed): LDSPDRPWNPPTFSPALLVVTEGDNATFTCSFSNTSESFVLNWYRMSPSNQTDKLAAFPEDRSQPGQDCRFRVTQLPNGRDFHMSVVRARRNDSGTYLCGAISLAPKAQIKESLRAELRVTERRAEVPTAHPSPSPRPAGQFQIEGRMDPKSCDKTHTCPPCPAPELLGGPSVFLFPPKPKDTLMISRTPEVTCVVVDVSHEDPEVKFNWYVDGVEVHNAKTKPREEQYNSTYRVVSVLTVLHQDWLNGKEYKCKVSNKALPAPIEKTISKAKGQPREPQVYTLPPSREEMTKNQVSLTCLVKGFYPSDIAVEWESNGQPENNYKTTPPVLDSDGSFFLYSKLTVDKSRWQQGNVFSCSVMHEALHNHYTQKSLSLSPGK
Assay: BLI Octet, immobilized huPD-1-Fc, Ab analyte
Description: All 21 humanized antibodies and the chimeric antibody (mAb719c) were characterized by binding ELISA and affinity determination using Octet® RED96 biolayer interferometry system (Pall FortéBio LLG), using a biosensor having immobilized human PD-Fc as the antibody target. Rate constants were derived by making kinetic binding measurements at five different concentrations of antibody.

Row | Kd | koff | kon | Binder
4 | 3.82 nM | 0.000227 s⁻¹ | 59400 M⁻¹ s⁻¹ | B2
5 | 0.601 nM | 6.26e-05 s⁻¹ | 104000 M⁻¹ s⁻¹ | B3
6 | 0.46 nM | 4.9e-05 s⁻¹ | 107000 M⁻¹ s⁻¹ | B4
7 | 0.844 nM | 5.81e-05 s⁻¹ | 68800 M⁻¹ s⁻¹ | B5
8 | < 0.103 nM | < 1e-05 s⁻¹ | 97400 M⁻¹ s⁻¹ | B6

Target: T1, recombinant human LAG-3-his protein …
Assay: BLI Octet, Ab on AHC sensor, huLAG-3-his; test group 1
Method: (§1) All 18 humanized antibodies (Table 34) and a chimeric antibody having the parental murine VH and VL domains (mAb747c) were ranked by dissociation rate constant (koff). Briefly, antibodies were characterized for affinities and binding kinetics by Octet®RED96 biolayer interferometry (Pall ForteBio LLC). Antibodies were captured by Anti-hIgG Fc Capture (AHC) Biosensors (Pall) at a concentration of 100 nM for 30 seconds. Sensors were then dipped into running buffer (1× pH7.2 PBS, 0.05% Tween 20, 0.1% BSA) for 60 seconds to check baseline. Binding was measured by dipping sensors into a single concentration of recombinant human LAG-3-his protein (Novoprotein). Dissociation was followed by dipping sensors into running buffer for 1200 seconds. The association and dissociation curves were fitted to a 1:1 Langmuir binding model using FortéBio Data Analysis software (Pall). In each test group, the off-rates of antibodies were able to be compared with that of mAb747c. The off-rate ratios were calculated by the off-rate of antibody to that of mAb747c of its group and were compared all together. The lower the ratio was, the higher was the affinity of the antibody.

Row | koff | off-rate ratio to that of mAb747c | Binder
9 | 0.011 s⁻¹ | 809% | B7
10 | 0.0109 s⁻¹ | 801% | B8
11 | 0.0108 s⁻¹ | 797% | B9
12 | 0.0144 s⁻¹ | 1060% | B10
13 | 0.00803 s⁻¹ | 592% | B11
14 | 0.00925 s⁻¹ | 682% | B12

Target: T1, recombinant human LAG-3-his protein …
Assay: BLI Octet, Ab on AHC sensor, huLAG-3-his; test group 2
Method: as §1

Row | koff | off-rate ratio to that of mAb747c | Binder
15 | 0.00423 s⁻¹ | 314% | B13
16 | 0.00719 s⁻¹ | 534% | B14
17 | 0.0119 s⁻¹ | 888% | B15
18 | 0.0043 s⁻¹ | 319% | B16
19 | 0.00773 s⁻¹ | 575% | B17
20 | 0.00436 s⁻¹ | 324% | B18

Target: T1, recombinant human LAG-3-his protein …
Assay: BLI Octet, Ab on AHC sensor, huLAG-3-his; test group 1
Remark: another data set of the same source
Method: as §1, with “9” for “18”, “25)” for “34)”, “Octet RED96” for “Octet®RED96”, “FortéBio” for “ForteBio”, “Anti-HIgG” for “Anti-hIgG”, “(Pall).” for “(Pall). In each test group, the off-rates of antibodies were able to be compared with that of mAb747c. The off-rate ratios were calculated by the off-rate of antibody to that of mAb747c of its group and were compared all together. The lower the ratio was, the higher was the affinity of the antibody.”
The seven Fab clones were converted to full IgG proteins. Briefly, the VH and VL genes were produced synthetically and then cloned into vectors containing coding sequences for the human IgG1 and human kappa constant domains, respectively. The heavy chain and cognate light chain plasmids were co-transfected into HEK 293E cells, individually. After approximately six days of post-transfection cell culture, the supernatants were harvested and subjected to Protein A affinity chromatography. The affinity of purified antibodies was ranked by Octet® RED96 biolayer interferometry (see, Example 9.1, supra).

Row | koff | off-rate ratio to that of mAb747c | Binder
21 | 0.00198 s⁻¹ | 132% | B19
22 | 0.00588 s⁻¹ | 392% | B20
23 | 0.0018 s⁻¹ | 120% | B21
24 | 0.00285 s⁻¹ | 190% | B22
25 | 0.00248 s⁻¹ | 165% | B23
